Measured values published in patent US20260347491 (published 2026).
Like-named read-outs stand apart in the source and are kept apart here.

B1: HER2xHER2x4-1BB-1 (full) (antibody)
chain 1: not shown
chain 2: DIQMTQSPSSLSASVGDRVTITCRASQSVQGAVAWYQQKPGKAPKLLIYSASFLYSGVPSRFSGSRSGTDFTLTISSLQPEDFATYYCQQHSTTPPTFGQGTKVEIKRTVAAPSVFIFPPSDEQLKSGRASVVCLLNNFYPREAKVQWKVDNALQSGNSQESVTEQDSKDSTYSLSSRLQLSKADYEKHKVYACEVTHQGLSSPVTKSFNRGEC
chain 3: not shown
chain 4: DIQMTQSPSSLSASVGDRVTITCKASQDVSIGVAWYQQKPGKAPKLLIYSASYRYTGVPSRFSGSGSGTDFTLTISSLQPEDFATYYCQQYYIYPYTFGQGTKVEIKRTVAAPSVFIFPPSDEELKSGTASVQCLLNNFYPREAKVQWKVDNALQSGNSQESVTEQDSKDSTYSLSSELTLSKADYEKHKVYACEVTHQGLSSPVTKSFNRGEC
B2: HER2xHER2x4-1BB-2 (both HER2 arms) (antibody)
chain 1: not shown
chain 2: not shown
chain 3: EVQLVESGGGLVQPGGSLRLSCAASGFTFTDYTMDWVRQAPGKGLEWVADVNPNSGGSIYNQRFKGRFTLSVDRSKNTLYLQMNSLRAEDTAVYYCARNLGPSFYFDYWGQGTLVTVSS
chain 4: DIQMTQSPSSLSASVGDRVTITCKASQDVSIGVAWYQQKPGKAPKLLIYSASYRYTGVPSRFSGSGSGTDFTLTISSLQPEDFATYYCQQYYIYPYTFGQGTKVEIK
B3: HER2xHER2x4-1BB-1 (both HER2 arms) (antibody)
chain 1: not shown
chain 2: DIQMTQSPSSLSASVGDRVTITCRASQSVQGAVAWYQQKPGKAPKLLIYSASFLYSGVPSRFSGSRSGTDFTLTISSLQPEDFATYYCQQHSTTPPTFGQGTKVEIK
chain 3: B2 chain 3
chain 4: B2 chain 4
B4: Pertuzumab (antibody, V domains shown)
VH: B2 chain 3
VL: B2 chain 4

Key:
[1] = target: T1, human CD32b (FcgRIIb) (human, UniProt P31994); assay: FACS, CHOS-hCD32b cells
T1 chain: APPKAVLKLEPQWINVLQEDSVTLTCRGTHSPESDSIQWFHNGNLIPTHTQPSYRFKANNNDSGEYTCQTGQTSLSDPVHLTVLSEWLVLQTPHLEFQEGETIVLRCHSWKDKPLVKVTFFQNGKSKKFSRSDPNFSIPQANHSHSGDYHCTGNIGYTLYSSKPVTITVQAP

[2] = target: T2, human HER2 (human, UniProt P04626); assay: FACS
[3] = target: T2, human HER2; assay: FACS; remark: listed apart in the source
[4] = target: human 4-1BB (CD137) (human, UniProt Q07011); assay: FACS
human 4-1BB (CD137), sequence (Q07011 24-186): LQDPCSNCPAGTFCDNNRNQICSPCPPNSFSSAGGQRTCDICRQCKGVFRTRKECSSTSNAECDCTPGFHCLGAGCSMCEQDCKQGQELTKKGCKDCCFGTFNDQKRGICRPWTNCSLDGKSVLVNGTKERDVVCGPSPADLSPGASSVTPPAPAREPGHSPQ

Row | Binder | EC50 [1] | EC50 [2] | EC50 [3] | binding result [4]
1 | B1 | 1.06 nM | – | – | –
2 | B2 | – | 1.81 nM | 2.88 nM | –
3 | B3 | – | 1.82 nM | 2.65 nM | –
4 | B4 | – | – | – | no binding
